The supplement of paper PMC9170038

What was measured:
MS2 coat protein = assay: apparent KD of MS2 coat protein; designed switch direction (-1 OFF switch, 1 ON switch): 1; higher = weaker reporter binding
Outline: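 The buffer was Tris-HCl pH 7.5 with KCl, MgCl2, BSA, DTT, tRNA and Tween-20. In it, SNAP-549-labelled MS2 coat protein was titrated in doubling steps from 0.7 or 1.5 nM to 3 µM over chip-bound RNA switches transcribed by stalled E. coli RNA polymerase on Illumina chips. Apparent KD is the per-design median over clusters of curve fits to normalised fluorescence.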

[1] = system: K4 kissing-loop RNA reporter; assay: apparent KD of K4 kissing-loop reporter; higher = weaker reporter binding; details: Eterna round: R107;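 also: bound reporter read as fluorescence of individual clusters on recovered sequencing chips by microscopy, with normalized cluster intensities fitted with a binding model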
Description: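 RNA-MaP round R107: designed RNA switches with theophylline, tryptophan, arginine or FMN aptamers are transcribed on-chip within common flanks. They are titrated with a labelled K4 kissing-loop RNA reporter in RNA-MaP buffer (100 mM Tris pH 7.5, 80 mM KCl, 4 mM MgCl2), without ligand or with the indicated ligand. Median apparent KD per design.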

[2] = Eterna round: R95, input ligand: microRNA oligo, concentration not stated
[3] = Eterna round: R95, input ligand: FMN 200 uM
[4] = Eterna round: R95, input ligand: none
[5] = input ligand: microRNA oligo, concentration not stated
[6] = input ligand: theophylline 20 uM
[7] = input ligand: tryptophan 2.4 mM

Sequence	apparent KD of MS2 coat protein (MS2 coat protein; [2]) [nM]	apparent KD of MS2 coat protein (MS2 coat protein; [3]) [nM]	apparent KD of MS2 coat protein (MS2 coat protein; [4]) [nM]	apparent KD of MS2 coat protein (MS2 coat protein; input ligand: FMN 200 uM) [nM]	apparent KD of MS2 coat protein (MS2 coat protein; [5]) [nM]	apparent KD of MS2 coat protein (MS2 coat protein; input ligand: none) [nM]	further results
GCAUCACAUGAGGAUCACCCAUGUCUUCGGAGUCGAGGAUAUGGUCACUGUAAACAGUGGCCAGAAGGCGAGAUGC [SS1 - Son of Teenbexe] (puzzle: Same State 1)	41.4	–	–	–	–	–	–
UAGUUACUAUCUCAGGAUAUCAUGUCAAAGACAUGAGGAUCACCCAUGUACCAGGAAACUGGUUAUGAGAAGGGAGAUAGUAACA [Mat - Same State 2 - Mod - D56] (puzzle: Same State 2)	34.2	78.7	38.6	–	–	–	–
AAGUAACAUGAGGAUCACCCAUGUGAGGUGAGCGUAGGAUAUCGAGAAGGAAGGGUGGAGCGAGAAGGACGAAGGA [JR_SS1_Sub0102] (puzzle: Same State 1)	192	349	501	–	–	–	–
AGCUAGUACCGAGGAUAUACAUACAUGAGGAUCACCCAUGUAUACAUGAUUUAAUGAGACUACAUGUAGAAGGCGGUACUAGCA [JL SSNG2 1.23] (Eterna round: R96, puzzle: Same State NG 2)	–	–	–	22	68.6	79.1	–
GUUACAUGAGGAUCACCCAUGUAUGUGUGGGAGUAAGUGUCUUAGGAUAUCUGUUAUUUAGUUUAAGAGAAGGAAGAUUGUUGU [JMF's solution 41] (Eterna round: R96, puzzle: Same State NG 3)	–	–	–	124	80.9	97.4	–
CCGCUAAAUGGAGGAUAUGGAGCCUUAUUGGCUCCAGAAGGUCAAAACAUGAGGAUCACCCAUGUGCGGCGGUCUAAUGACCGA [Eli NG1ss - 48] (Eterna round: R96, puzzle: Same State NG 1)	–	–	–	–	122	–	–
AUGGUGCAGGUACAGGAUAUGUUGCUCGUAACAUGAGGAUCACCCAUGUACCUAUGAGAUUAAAUGCAGAAGGGUGCACACCAAA [Mat - Same State 2 - Mod of UCT - D90] (Eterna round: R96, puzzle: Same State 2)	–	–	–	38.1	224	1350	–
GUAGAUAUAAAGGAGGAUAUUCAAUGAGAGACAUGAGGAUCACCCAUGUGAGAGUGAGAUGAUAGGAAGAAGGCUUAGAGAGAUG [Altered State 2-6 - Jieux - Same State 2] (puzzle: Same State 2)	54.9	64.1	72	–	–	–	–
CGUCCGGCCUGAGCUGGUCGGAAGCAUGUACAUGAGGAUCACCCAUGUUCAUGUGCAGGCUUUUUGCUCGUCUUGUG [salish99_mir208a_modof_jandersonlee_004] (puzzle: Sensor for hsa-mir-208a)	13.1	39.8	39.6	–	–	–	–
UGAAUAUUUACAGGAUAUGAGUUGUAUAGUGGAUCAGAAGGGUGGGUGUUUUGCACGGUGUGUUACAUGAGGAUCACCCAUGUU [SameState NG1 #26] (Eterna round: R96, puzzle: Same State NG 1)	–	–	–	412	206	196	–
GAUUGUGAUGGAAACAUCGCAAUCUCUGAAGGAGCGCGUGAAAACGCAGGUAGGUCGCAGGACGACAAAGACAGUGAUGUUGUCA [Ex Arginine A K4 1]	–	–	–	–	–	–	apparent KD of K4 kissing-loop reporter ([1]; input ligand: FMN 200 uM): 335 nM; apparent KD of K4 kissing-loop reporter ([1]; input ligand: arginine 13.2 mM): 319 nM; apparent KD of K4 kissing-loop reporter ([1]; input ligand: none): 311 nM; apparent KD of K4 kissing-loop reporter [1, 6]: 369 nM; apparent KD of K4 kissing-loop reporter [1, 7]: 380 nM
CUUAGGUCAGUUACCCGAGUGAUGUUCUGUCGAGGACCGGUACGGCCGCCACUCGCUCAUUAUCGGUCUGACAAAGAGCUGGCUU [theeternabot_exclusion_KL_Trp_A_9]	–	–	–	–	–	–	apparent KD of K4 kissing-loop reporter ([1]; input ligand: FMN 200 uM): 393 nM; apparent KD of K4 kissing-loop reporter ([1]; input ligand: arginine 13.2 mM): 56.4 nM; apparent KD of K4 kissing-loop reporter ([1]; input ligand: none): 208 nM; apparent KD of K4 kissing-loop reporter [1, 6]: 136 nM; apparent KD of K4 kissing-loop reporter [1, 7]: 106 nM
UGAUACCAGACGGCCGCCACUCCUGCAGUCAAAAGACUGCUAAAGGAAAUCGUCCAGUGAUGUUGGAGGACCGGGUCUGGUAUCU [TrypBX 16 #SwitchBubble #Palindromic #StaticStem]	–	–	–	–	–	–	apparent KD of K4 kissing-loop reporter ([1]; input ligand: FMN 200 uM): 1120 nM; apparent KD of K4 kissing-loop reporter ([1]; input ligand: arginine 13.2 mM): 719 nM; apparent KD of K4 kissing-loop reporter ([1]; input ligand: none): 1380 nM; apparent KD of K4 kissing-loop reporter [1, 6]: 991 nM; apparent KD of K4 kissing-loop reporter [1, 7]: 403 nM
